# According to patent publication US20080299072A1 (LABORATOIRES SERONO, published 2008):
# T1: CCR1 (UniProt P32246 1-355, limits assumed)
# T1 construct: whole, on cells; Membrane preparation of CHO transfectants; also called CCR1-expressing CHO membranes
# T1 sequence (looked up): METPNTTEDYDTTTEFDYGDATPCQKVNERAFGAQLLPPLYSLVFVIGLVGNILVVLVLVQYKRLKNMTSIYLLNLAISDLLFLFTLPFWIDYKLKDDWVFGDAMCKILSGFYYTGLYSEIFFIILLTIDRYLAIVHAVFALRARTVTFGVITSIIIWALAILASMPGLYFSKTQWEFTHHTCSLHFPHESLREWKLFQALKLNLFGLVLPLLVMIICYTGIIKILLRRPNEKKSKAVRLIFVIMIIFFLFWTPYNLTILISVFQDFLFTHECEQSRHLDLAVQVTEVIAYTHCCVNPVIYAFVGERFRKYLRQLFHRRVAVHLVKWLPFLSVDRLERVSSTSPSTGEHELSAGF
# B1: Met-RANTES (ligand)
# chain: MSPYSSDTTPCCFAYIARPLPRAHIKEYFYTSGKCSNPAVVFVTRKNRQVCANPEKKWVREYINSLEMS
# notes: The build (Met + mature RANTES) comes from the background description and the name
# B2: S4C-5 kDaPEG-RANTES (ligand)
# chain: SPYC(mPEG‑MAL 5 kDa)SDTTPCCFAYIARPLPRAHIKEYFYTSGKCSNPAVVFVTRKNRQVCANPEKKWVREYINSLEMS
# notes: This is probably a printing error; also called S4C-5 kDa-RANTES
# B3: S1C-5 kDaPEG-RANTES (ligand)
# chain: C(mPEG‑MAL 5 kDa)PYSSDTTPCCFAYIARPLPRAHIKEYFYTSGKCSNPAVVFVTRKNRQVCANPEKKWVREYINSLEMS
# notes: Expressed without a leader; also called S1C-5 kDa-RANTES
# B4: S5C-5 kDaPEG-RANTES (ligand)
# chain: SPYSC(mPEG‑MAL 5 kDa)DTTPCCFAYIARPLPRAHIKEYFYTSGKCSNPAVVFVTRKNRQVCANPEKKWVREYINSLEMS
# notes: also called S5C-5 kDa-RANTES
# B5: PEG-2 kDa-RANTES (ligand)
# chain: {mPEG‑ButyrALD 2 kDa}-SPYSSDTTPCCFAYIARPLPRAHIKEYFYTSGKCSNPAVVFVTRKNRQVCANPEKKWVREYINSLEMS
# notes: also called N-terminal PEGylated wt RANTES (2 kDa)
# B6: Mature wildtype (wt) human RANTES (ligand)
# chain: SPYSSDTTPCCFAYIARPLPRAHIKEYFYTSGKCSNPAVVFVTRKNRQVCANPEKKWVREYINSLEMS
# notes: The mature form was used; also called WT RANTES; CCL5
# B7: PEG-5 kDa-RANTES (ligand)
# chain: {mPEG‑ButyrALD 5 kDa}-SPYSSDTTPCCFAYIARPLPRAHIKEYFYTSGKCSNPAVVFVTRKNRQVCANPEKKWVREYINSLEMS
# notes: also called N-terminal PEGylated wt RANTES (5 kDa)
# Biological target: T2, CCR5 (UniProt P51681 1-352, limits assumed)
# T2 construct: whole, on cells; L1.2/CCR5 cells for chemotaxis; also called CCR5-expressing CHO membranes; L1.2/CCR5 transfectants
# T2 sequence (P51681 whole entry): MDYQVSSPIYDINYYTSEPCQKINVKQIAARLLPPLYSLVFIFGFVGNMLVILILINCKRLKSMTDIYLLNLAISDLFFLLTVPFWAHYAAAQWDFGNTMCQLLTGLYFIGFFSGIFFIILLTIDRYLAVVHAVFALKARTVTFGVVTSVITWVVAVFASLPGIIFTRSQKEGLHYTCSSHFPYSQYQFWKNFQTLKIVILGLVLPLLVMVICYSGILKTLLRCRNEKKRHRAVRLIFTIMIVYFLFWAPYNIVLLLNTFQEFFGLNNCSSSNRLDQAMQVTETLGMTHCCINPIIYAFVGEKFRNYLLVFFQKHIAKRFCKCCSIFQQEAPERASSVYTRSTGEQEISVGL
# Test: competition SPA, displacement of 125I-MIP-1α from CCR5 CHO membranes
# Protocol: (§1) The assay was carried out on membranes isolated from CHO transfectants expressing CCR1 and CCR5 from Invitrogen® using a scintillation proximity assay (Alouani, 2000). The unlabelled chemokines were prepared in triplicate by serial dilution in the range of 10⁻⁶ to 10⁻¹² M in 50 mM HEPES pH 7.5, containing 1 mM CaCl₂, 5 mM MgCl₂ and 0.5% bovine serum albumin (binding buffer). Wheatgerm scintillation proximity assay beads (Amersham®) were solubilized at 50 mg/ml in PBS, diluted to 10 mg/ml in binding buffer and put at 250 μg/well. Membranes were diluted to 80 μg/ml in binding buffer and put at 2 μg/well in the assay plates. ¹²⁵I-MIP-1α (Amersham®) was put at 0.1 nM/well and finally unlabelled chemokine was added into the plate. The plates were incubated for 3 h at room temperature with agitation and radioactivity was read with a Wallac counter.
row,IC50,Binder
1,15.2 nM,B1
2,40 nM,B2
3,41 nM,B3
4,902 nM,B4

# Biological target: T2, CCR5
# Test: competition SPA, displacement of 125I-MIP-1α from CCR5 CHO membranes (FIG. 2)
# Protocol: FIG. 2: Equilibrium competition binding to CCR5. The binding assay was performed by monitoring the displacement of [¹²⁵I]-MIP-1α from CCR5-expressing CHO membranes. A) PEGylated Ser/Cys variants. Added as competitors were: RANTES (□), Met-RANTES (x), S1C-5 kDaPEG-RANTES (▪), S4C-5 kDaPEG-RANTES, S5C-5 kDaPEG-RANTES (□). B) N-terminal PEGylated wt RANTES variants. Added as competitors were RANTES (□), Met-RANTES (x), PEG-2 kDa-RANTES (▴), PEG-5 kDa-RANTES (▾).
# as §1
row,IC50,Binder
1,15.5 nM,B1
2,45.4 nM,B2
3,82.5 nM,B3

# Biological target: T1, CCR1
# Test: competition SPA, displacement of 125I-MIP-1α from CCR1 CHO membranes
# Protocol: as §1
row,IC50,Binder
1,43 nM,B5
2,73 nM,B1
3,23.3 nM,B6
4,84 nM,B2
5,167 nM,B3
6,50 nM,B7

# Biological target: T1, CCR1
# Test: competition SPA, displacement of 125I-MIP-1α from CCR1 CHO membranes (FIG. 1)
# Protocol: FIG. 1: Equilibrium competition binding to CCR1. The binding assay was performed by monitoring the displacement of [¹²⁵I]-MIP-1α from CCR1-expressing CHO membranes. A) PEGylated Ser/Cys variants (S1C, S4C). Added as competitors were: RANTES (□), Met-RANTES (X), S1C-5 kDaPEG-RANTES (▪), S4C-5 kDaPEG-RANTES. B) N-terminal PEGylated wt RANTES variants. Added as competitors were: RANTES (□), Met-RANTES (X), PEG-2 kDa-RANTES (▴), PEG-5 kDa-RANTES (▾).
# as §1
row,IC50,Binder
1,41 nM,B5
2,72 nM,B1
3,69 nM,B6
4,83 nM,B2
5,272 nM,B3
6,47 nM,B7
